The target in the assay is recombinant SARS-CoV-2 Spike 1 subunit (S1), Alpha S1 construct 1 (SARS-CoV-2 (WHO Alpha (WT) variant, …, UniProt P0DTC2 14-674)).

B1: recombinant biotinylated human angiotensin-converting enzyme 2 (ACE2-biotin), construct hACE-GS-6xHIS (receptor)
chain: STIEEQAKTFLDKFNHEAEDLFYQSSLASWNYNTNITEENVQNMNNAGDKWSAFLKEQSTLAQMYPLQEIQNLTVKLQLQALQQNGSSVLSEDKSKRLNTILNTMSTIYSTGKVCNPDNPQECLLLEPGLNEIMANSLDYNERLWAWESWRSEVGKQLRPLYEEYVVLKNEMARANHYEDYGDYWRGDYEVNGVDGYDYSRGQLIEDVEHTFEEIKPLYEHLHAYVRAKLMNAYPSYISPIGCLPAHLLGDMWGRFWTNLYSLTVPFGQKPNIDVTDAMVDQAWDAQRIFKEAEKFFVSVGLPNMTQGFWENSMLTDPGNVQKAVCHPTAWDLGKGDFRILMCTKVTMDDFLTAHHEMGHIQYDMAYAAQPFLLRNGANEGFHEAVGEIMSLSAATPKHLKSIGLLSPDFQEDNETEINFLLKQALTIVGTLPFTYMLEKWRWMVFKGEIPKDQWMKKWWEMKREIVGVVEPVPHDETYCDPASLFHVSNDYSFIRYYTRTLYQFQFQEALCQAAKHEGPLHKCDISNSTEAGQKLFNMLRLGKSEPWTLALENVVGAKNMNVRPLLNYFEPLFTWLKDQNKNSFVGWSTDGGGGSGGGGSHHHHHHH
modifications: biotinylated, 1-10 biotins per ACE2 [mole:mole]; positions not given
With B1, the EC50 – broadly, the concentration at which the effect is half-maximal – stood at 0.5 nM.

The values are drawn from patent US20240361316A1 (ORASURE TECHNOLOGIES, published 2024).
